For two molecules, binding result, Kd and dH results are on record in PMC5224484 (Nucleic Acids Research, 2016).

The target in assay [1] is T1, seleno-methionine labeled SRP72-PBD (L31M/L65M) (human, UniProt O76094 8-166, L31M | L65M, seleno-methionine labeled).
T1 sequence (looked up): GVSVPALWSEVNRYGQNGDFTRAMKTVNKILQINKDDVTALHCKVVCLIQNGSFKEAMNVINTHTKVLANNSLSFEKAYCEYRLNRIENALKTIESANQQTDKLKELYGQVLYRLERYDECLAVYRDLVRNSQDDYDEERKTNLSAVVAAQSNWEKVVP
As to the kind of experiment: crystal structure.

In assay [2] the target is T2, human SRP72 protein-binding domain (SRP72-PBD, 8-166) (human, UniProt O76094 8-166).
T2 sequence (looked up): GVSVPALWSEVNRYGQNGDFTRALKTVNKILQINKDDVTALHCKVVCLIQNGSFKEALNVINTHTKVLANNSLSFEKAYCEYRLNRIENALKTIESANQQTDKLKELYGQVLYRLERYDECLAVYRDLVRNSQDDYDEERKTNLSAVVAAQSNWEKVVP
As to the kind of experiment: ITC.

B1: untagged human SRP68 protein-binding domain (SRP68-PBD, 546-614) (domain or fragment, UniProt Q9UHB9 546-614, looked up)
chain: SQVKDNKPLVERFETFCLDPSLVTKQANLVHFPPGFQPIPCKPLFFDLALNHVAFPPLEDKLEQKTKSG
For the molecule B1, the binding result in assay [1] is on record as “binds”.

B2: His6-SRP68-PBD (human SRP68 546-614 from pETtrx1a) (domain or fragment, UniProt Q9UHB9 546-614, looked up)
chain: SQVKDNKPLVERFETFCLDPSLVTKQANLVHFPPGFQPIPCKPLFFDLALNHVAFPPLEDKLEQKTKSG
Regarding B2, in assay [2], the equilibrium dissociation constant (Kd) (commonly the free concentration of one partner at which half of the binding sites on the other are occupied at equilibrium, for simple one-to-one binding) is 33 ± 11 nM and the dH was -15.7 ± 0.5 kcal/mol.
